In the nanobody polyreactivity screen of Harvey et al. (2022):

assay: yeast display, Sf9 membrane polyspecificity reagent, FACS + sequencing; frameworks hold sequencing errors
Procedure, shortened: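 Synthetic nanobody libraries on Saccharomyces cerevisiae BJ5465 were galactose-induced for 36–48 hours, stained 1 hour at 4 °C with 10% biotinylated, detergent-solubilized Sf9 membrane reagent and enriched on streptavidin microbeads. FACS then separated cells into low and high (top ~1%) gates by anti-HA (expression) and streptavidin (reagent binding) fluorescence. Genes were colony-PCR amplified, MiSeq 2 × 250 sequenced and CDR-length filtered. A clone's polyreactivity label is that of its gate of origin.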

| Sequence | polyreactivity (PSR sort gate) |
| --- | --- |
| QVQLVESGGGLVQAGGSLRLSCAASGRILYRYAMGWYRQAPGKERELVAAISYSGGSTSYADSVKGRFTISRDNAKNTVYVQMNSLKPEDTAVYYCAAAYYLLRYKKRYDYWGQGTQVTVSS | high polyreactivity |
| QVQLVESGGGLVQAGGSLRLSCAASGRILYRYAMGWYRQAPGKERELVADISWSGGSRYYADSVKGRFTISRDNAKNTVYLQMNSLKPEDTAVYYCAAFRLWYSTFDYWGQGTQVTVSS | high polyreactivity |
| QVQLVESGGGLVQAGGSLRLSCAASGRILYSYAMGWYRQAPGKEREFVADIRRSGGSTYYADSVKGRFTISRDNAKNTVYLQMNSLKPEDTAVYYCAKSQSAKGGYDYWGQGTQVTVSS | high polyreactivity |
| QVQLVESGGGLVQAGGSLRLSCAASGRILYSYAMGWYRQAPGKERELVASISWSGGSTYYADSVKGRFTISRDNAKNTVYLQMNSLKPEDTAVYYCAKKYYSVYQTDVSGRYDYWGQGTQVTVSS | low polyreactivity |
| QVQLVESGGGLVQAGGSLRLSCAASGRILYSYPMGGYRQAPGKERELVASISLSGGRTYADSVKGRFTISRDNAKNTVFLQMNSLKPVDTAVYYCNARIRTSRYLWPFDYWGQGTQVTVSS | high polyreactivity |
| QVQLVESGGGLVQAGGSLRLSCAASGRILYVNTMGWYRQAPGKERELVAGITSRVGSTYYADSVKGRFTISRDNGKNTVYLQMKSLKPEYTAVYYCNARSTWRHRRDQVDFDYWGQGTQVTVSS | low polyreactivity |
| QVQLVESGGGLVQAGGSLRLSCAASGRINAMGWYRQAPGKERELVAVITLRGGSTYYADSVKGRFTISRDNAKNTVYLQMNSLKPEDTAVYYCAAVYRWPDAKYDYWGQGTQVSVSS | low polyreactivity |
| QVQLVESGGGLVQAGGSLRLSCAASGRIRPRNAMGWYRQAPGKERELVAGISSDGSTNYADSVKGRFTISRDNAKNTVYLQMNSLKQEDTAVYYCAADGVYDPNLYGYWGQGTQLTVSS | low polyreactivity |
| QVQLVESGGGLVQAGGSLRLSCAASGRISAYAMGWYRQAPGKERELVAAISSRGGRTYYADSVKGRFTISRDNAKTTVYLQMNSLKPEDTAVYYCNALRPWEFDHWGHGTQVTVSS | high polyreactivity |
| QVQLVESGGGLVQAGGSLRLSCAASGRISAYYAMGWYRQAPGKERELVAVITSGGRTNYADSVKGRFTISRDNAKNTVYLQMNSLKPEDTAVYYCAARSRVSPRYDYWGQGTQVTVSS | high polyreactivity |
| QVQLVESGGGLVQAGGSLRLSCAASGRISGFNAMGWYRQAPGKDRELVAAISYRGGSTSADSVKGRFTISRDNAKNTVYLQMNSLKPEDTAVYYCAADVRFYQYSDYDYWGQGTQVTVSS | low polyreactivity |
| QVQLVESGGGLVQAGGSLRLSCAASGRISGRNAMGWYRQAPGKERELVAVITRGDTNYADSVKGRFTISRDNAKNTVYLQMNSLKPEDTAVYYCAKEPLASGWGYDYWGQGTQVTVSS | high polyreactivity |
| QVQLVESGGGLVQAGGSLRLSCAASGRISGRYAMGWYRQAPGKERELVAAITGRGGGTFYADSVKGRFTISRDNAKNTVYLQMNSLKPEDTAVYYCNTDYGSSYNYCGQGTQVTVSS | high polyreactivity |
| QVQLVESGGGLVQAGGSLRLSCAASGRISGSYVMGWYRQAPGKESELVAGISGRGGSTYYADSVKGRFTISRDNAKNTVYLQMYSLKPEDTAVYYCAVVDRTSKGNSYYWGQGTQVTVSS | high polyreactivity |
| QVQLVESGGGLVQAGGSLRLSCAASGRISGVNAMGWYRQAPGKERELVATISGSGGRTYYADSVKGRFTISRDNAKNTVYLQMNSLKPEDTAVYYCAAGPPRADYDYWGQGTQVTVSS | low polyreactivity |
| QVQLVESGGGLVQAGGSLRLSCAASGRISKKYAMGWYRQAPGKERELVAAIRGSGGGTYYADSVKGRFTISRDNAKNTVYLQMNSLKPEDTAVYYCNAASRHSTAPITGYDSWGQGTQVTVSS | high polyreactivity |
| QVQLVESGGGLVQAGGSLRLSCAASGRISKRYTMGWYRQAPGKERELVAAITNSGGTTYYADSVKGRFTISRDNAKNTVYLQMNSLKPEDTAVYYCNKPYGAETAHREFDYWGQGTQVTVSS | low polyreactivity |
| QVQLVESGGGLVQAGGSLRLSCAASGRISRCYVMGWYRQEPGKERELVAAITWNSGSTYYADSVKGRFTISRDNAKNTVYLQMNSLKPEDTAVYYCAAVLYSRYQQYDFWGQGTQVTVSS | high polyreactivity |
| QVQLVESGGGLVQAGGSLRLSCAASGRISSGYAMGWYRKAPGKERELVAAISSIGGRTYYADSVKGRFTISRDNANNTVYLQMNSLKPEDTAVYYCNAGTYRRIGGYDYWGQGTQVTVSS | high polyreactivity |
| QVQLVESGGGLVQAGGSLRLSCAASGRISSQYAMGWYRQAPGKERELVAAISTSGDRTYYADSVKGRFTISRDTAKNTVYLEMNSLKPEDTAVYYCAKDCPYTYGRDIYEYWGQGTQVTVSS | low polyreactivity |
| QVQLVESGGGLVQAGGSLRLSCAASGRISVFNAMGWYRQAPGKERELVAAITSGGSTNYADSVKGRFTISRDNAKNTVYLQMNSLKPEDTAVYYCNADVYHSHEPHYDYWGQGTQVTVSS | low polyreactivity |

| Sequence | polyreactivity (PSR sort gate) |
| --- | --- |
| QVQLVESGGGLVQAGGSLRLSCAASGRISVRIYAMGWYRQAPGKERELVAIIARSGGSTYYADSVKGRFTISRDNAKHTVYLPMNSLKPADTAVYYCAAGYRTRRGLGYYYWGQGTQVTVSS | high polyreactivity |
| QVQLVESGGGLVQAGGSLRLSCAASGRISVYNMGWYRQAPGKERELVAAISNGGSTNYADSVKGRFTISRDNAKNTVYLQMNSLKPEDTAVYYCNRRVPYSFYSRGYYYWGQGTQVTVSS | high polyreactivity |
| QVQLVESGGGLVQAGGSLRLSCAASGRISWVYPMGWYRKAPGKERELVAAITFSGGSTYYADSVKGRFTISRDNAKNSVYLQMNSLKPEDTAVYYCAADVLAIYSHRYYRYDSWGQGTQVTVSS | high polyreactivity |
| QVQLVESGGGLVQAGGSLRLSCAASGRISYGYAMGWYRQAPGKERELVAAISRSGGTTYYADSVKGRFTISRDNAKNTVYLQMNSLKPEDTAVYYCNRVWYATDFVNTMGYWGQGTQVTVSS | low polyreactivity |
| QVQLVESGGGLVQAGGSLRLSCAASGRISYGYVMGWYRQAPGKERELVAAISRTGGNTYYADSVKGRFTISRDNAKNTVYLQMNSLKPEDTAVYYCAKVYKTGITQYDYWGQGTQVTVSS | high polyreactivity |
| QVQLVESGGGLVQAGGSLRLSCAASGRISYYYMGWYRQAPGKERELVAAISWNGGRTYYADSVKGRFTISRDNAKNTVYLQMNSLKPEDTAVYYCAARFYSRAFWPAYYYWGQGTQVTVSS | high polyreactivity |
| QVQLVESGGGLVQAGGSLRLSCAASGRITFSHNTMGWYRQAPGKERELVAAISSGGRTNYADSVKGRFTISRDNAKNTVYLQMNSLKPEDTAVYYCARESHYDFIYDGMDYWGQGTQVTVSS | low polyreactivity |
| QVQLVESGGGLVQAGGSLRLSCAASGRITGIYAMGWYRPAPGKERELVAAITWRGGRTCYADSVKGRFTISRDNAKNSVYLQMNSLKPEDTAVYYCAAELQGAYYFAYYYWGQGTQVTVSS | high polyreactivity |
| QVQLVESGGGLVQAGGSLRLSCAASGRITVFYTMGWYRQAPGKERELVATITRSGSRTYYADSVKGRFTISRDNAKNTVYLQMNSLKPEDTAVYYCARSQAVYDGWFAKFGYWGQGTQVTVSS | low polyreactivity |
| QVQLVESGGGLVQAGGSLRLSCAASGRIVEVYAMGWYRQARGKERELVAAISSGGGSTYYADSVKGRFTISRDNAKNTVYLQMNSQKPEDTAVYYCAARKPSVRGAPYYYWGQGTQVTVSS | high polyreactivity |
| QVQLVESGGGLVQAGGSLRLSCAASGRIVGRHALGWYRQAPGKERELVAAMSSSGGTYYADSVKGRFTISRDKAKNTLYLQMNSLKPEDTAVYYCNARVRTQQRWVDYWGQGTQVTVSS | high polyreactivity |
| QVQLVESGGGLVQAGGSLRLSCAASGRIVRPNAMGWYRQAPGKERELVAAIRSTVGSTFYADSVKGRFTISRDNAKNTVYLEMISLKPEDTAVYDCAAGTSRQFFYWGQGTQVTVAS | low polyreactivity |
| QVQLVESGGGLVQAGGSLRLSCAASGRIVSGYAMVWYRQAPGKERELVAAITSGGSTNYADSVKGRFTLSRDNAKNTVYLQMNSLKPEDTAVYYCAADSREVSTTAYYYWGQGTQVTVSS | low polyreactivity |
| QVQLVESGGGLVQAGGSLRLSCAASGRIWGYAMGLYRQAPGKARELVATITYNSGRTYYADSVKGRFTISRDNAKNTVYLQMNSLKPEDTAVYYCNKDFDGRFDYWGQGTQVNVSS | high polyreactivity |
| QVQLVESGGGLVQAGGSLRLSCAASGRIYFNAMGWYRQAPGKERELLADISWIGGSTYYADSVKGRFTISRDNGKNTVYLQMNRLKPEYTAVYYCAAVFLSWWDSYDFWGQGTQVTVSS | high polyreactivity |
| QVQLVESGGGLVQAGGSLRLSCAASGRIYGLYAMGWYRQAPGKERELVAAISEGGGSTNYADSEKGRFTISRDNAKNTFYLQMNSLKPDDTAVYYCAATYRTGVRRYYSWGQGTQVTVSS | low polyreactivity |
| QVQLVESGGGLVQAGGSLRLSCAASGRIYGVYVMGWSRQAPGKERELVAAISWGGGTYYADSVKGRFTISRDNSKNTVTLKMNSLKPEDTAVYYCNAESYYTMYYWGQGTQVTVSS | low polyreactivity |
| QVQLVESGGGLVQAGGSLRLSCAASGRIYIDYAMGWYRQAPGKERELVATISESGGSTYYADSVKGRITISRDNAKNTVYLQMNSLKPEDTAVYYCAVDDRSGTVYFYTKFDYWGQGTQVTVSS | low polyreactivity |
| QVQLVESGGGLVQAGGSLRLSCAASGRIYKRYDMGWYRQAPGKERELVAAITGTGGSTYYADSVKGRFTISRDNAKNTVYLQMNSLKPEDTAVYYCAARLYNTYSGFAFGYWGQGTQVTVSS | high polyreactivity |
| QVQLVESGGGLVQAGGSLRLSCAASGRIYNSNAMGWYRQAPGKERQLVAAITTSGASTYYADSVKGRFTISRDNAKNTVYLQMNSLKPEDTSVYYCATYAVVYPFAMDYWGQGTQVTVSS | low polyreactivity |
